Consider one molecule from patent US20220363738A1.

The experiment addresses T1, Calnexin (Cnx) on the surface of human cells (MDA-MB-231 ER-G2, Huh7, KP4) (human), P27824.
T1 chain: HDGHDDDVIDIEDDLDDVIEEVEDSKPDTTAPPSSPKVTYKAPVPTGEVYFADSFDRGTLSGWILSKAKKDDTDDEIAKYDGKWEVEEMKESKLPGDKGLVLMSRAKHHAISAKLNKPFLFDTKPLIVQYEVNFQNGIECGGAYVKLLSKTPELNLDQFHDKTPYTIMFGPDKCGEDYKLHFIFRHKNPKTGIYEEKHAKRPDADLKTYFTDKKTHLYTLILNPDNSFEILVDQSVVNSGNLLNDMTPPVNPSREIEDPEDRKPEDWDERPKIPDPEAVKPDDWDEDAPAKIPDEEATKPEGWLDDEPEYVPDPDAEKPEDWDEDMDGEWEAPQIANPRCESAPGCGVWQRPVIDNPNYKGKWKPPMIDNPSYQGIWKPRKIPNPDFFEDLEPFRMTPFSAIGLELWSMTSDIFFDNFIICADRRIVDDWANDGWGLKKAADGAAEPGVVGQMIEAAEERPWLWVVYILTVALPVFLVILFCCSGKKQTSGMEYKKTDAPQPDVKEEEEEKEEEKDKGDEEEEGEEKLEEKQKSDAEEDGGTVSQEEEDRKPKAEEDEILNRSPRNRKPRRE
Put plainly: proximity ligation assay on live, intact cells, probes for Cnx and ERp57. To be noted: remark: other sources report otherwise.

B1: ERp57 (PDIA3) on the surface of human MDA-MB-231 ER-G2 cells, P30101 25-505 (enzyme, UniProt P30101 25-505, looked up)
chain: SDVLELTDDNFESRISDTGSAGLMLVEFFAPWCGHCKRLAPEYEAAATRLKGIVPLAKVDCTANTNTCNKYGVSGYPTLKIFRDGEEAGAYDGPRTADGIVSHLKKQAGPASVPLRTEEEFKKFISDKDASIVGFFDDSFSEAHSEFLKAASNLRDNYRFAHTNVESLVNEYDDNGEGIILFRPSHLTNKFEDKTVAYTEQKMTSGKIKKFIQENIFGICPHMTEDNKDLIQGKDLLIAYYDVDYEKNAKGSNYWRNRVMMVAKKFLDAGHKLNFAVASRKTFSHELSDFGLESTAGEIPVVAIRTAKGEKFVMQEEFSRDGKALERFLQDYFDGNLKRYLKSEPIPESNDGPVKVVVAENFDEIVNNENKDVLIEFYAPWCGHCKNLEPKYKELGEKLSKDPNIVIAKMDATANDVPSPYEVRGFPTIYFSPANKKLNPKKYEGGRELSDFISYLQREATNPPVIQEEKPKKKKKAQEDL
modifications: here or on the partner: O-GalNAc (Tn) glycosylation at T50, T59, T66, T79, S81 and S86 after GALA activation
As for B1, the proximity ligation assay signal, fold increase in MDA ER-G2 against wild-type MDA cells stood at 10 fold.
